A protein production outcome set (Wang et al. 2014)

Assay: label from the status in PepcDB records

Row | Sequence | protein production
1 | MQLRTKLVIYSTVCCAFGVLLTLATMKYLFSTSSPEVATPATLPDVQLPELDLAQLQDSVAAIESAIKNTEQFQQAFSLQERLRADQIKHELQKLEQLKQEQLQIKLYKLELLKQGLFNPAPHPANMVPALPVVEQSKLPPLSLDPQAEHTPPIFELVLVILLACSVCALGVAWFTRHLARSLDALEVGLLNFNDNDFSVSIPTNGEGQLKTLAELFNHSAAKLRQERQYIYQRELLLDKVIQSSPNVMLLLNDHQRLMYANDAARHLFQIKGKMEGLSLEELLQELPEALALALKQEKSGLFTMGEDDAETWYLSRGQFLLNNQQHNLILLKQMTRELNRQEVAVWKKVIRIISHELNNSVAPIASMVNSGRLLTKDLDNPKLKLIFDTIESRTNHLSQFIYNYARFAKLPLPQRRKVAWSQLIEQLTQHYPFSLTHELPIEDGYVDQGQMEQVLLNLLKNAHESGSNPEEVTLSIRYQKMVDGGGFSIKIEDRGSGMSEEVLEQALLPFYSTKQSGTGLGLPLCREIIEAHDGSISMHNRTEGGLSVLLWLPQ | failed
2 | MNNRFNGTSIKQYSTTFLLLGSMASAAHVRAADEFHPNSFNSEALKQSMIAEFALAYDDVPTAIHNYTVLAIKSNSTSIKQRALDIALEYNDLKAALDIATHWVVQEPEDVPAMFYLAHIALRAHEYKLAANTLDKILNIDPNADLEQILAGIAPESKEDRENLLETLKTSKEKENPSILVMIAGLEAQNGHLQDALINTNRALRKRPKVTGFILMKANLLIGLNDIEGAQKWYAKSSKRHRDNLDIRLAEARFLIRHNESELALKKLEDIIKTWPDAEDAKFIAGLTSIDLKQYEKAEQYLVDLRYSAKYQNDAYYYLAVNAERKQHFETAKAYYRLVDGSLYVVSRRNLVSIFEKQGNLNDALRFLTQERVNYPQHASFLYQAQAEILKKTGNKKAALRLLDEAIKNISDDPELIYAEVLLLDPFSDRDKLDRTLKQLLLIEPNSPTYLNAYAYTLALQNRRLDEARQYAELALEYAPEQASILDTLGYIAFLQNDYAAAATSLGKAYTLSNNVNIGIRFAKALYMQGNLTEFSEVLQQLKEKNANDPQLKQLDALILPTVTKKS | failed
3 | MKKILVIRNDKIGDFMVCFPAFAMLKQSMPNAEITALVPSYTASLAELCPSIDNVIIDTPNKKDKTEFNRVLQAVKNAQFDAVICFVSDWYNAKLTWKSGIKHRLAPATKVFQFLYNQRLEHHHHHH | failed
4 | MPGPIMQEVAQYLASLSGKAVVINIFAGHADRSLSQTQLAELLDKLLARHPGSAVILLDHRREIRIPLPPEVVINPFNTLHHAMALIAQAELIISPDTSVVHMAAAWNKPLIAVYKDVLLNNRLWAPGYDNARQIIVKCGKVHQHRGLVDRIIAALPETLLEHHHHHH | failed
5 | VTDVLLCVGNSMMGDDGAGPLLAEKCAAAPKGNWVVIDGGSAPENDIVAIRELRPTRLLIVDATDMGLNPGEIRIIDPDDIAEMFMMTTHNMPLNYLIDQLKEDIGEVIFLGIQPDIVGFYYPMTQPIKDAVETVYQRLEGWEGNGGFAQLAVEEE | not failed
6 | MTQFKLIGFDLDGTLVNSLPDLALSINSALKDVNLPQASENLVMTWIGNGADVLSQRAVDWACKQAEKELTEDEFKYFKRQFGFYYGENLCNISRLYPNVKETLEALKAQGYILAVVTNKPTKHVQPILTAFGIDHLFSEMLGGQSLPEIKPHPAPFYYLCGKFGLYPKQILFVGDSQNDIFAAHSAGCAVVGLTYGYNYNIPIAQSKPDWIFDDFADILKITQ | not failed
7 | MPHLNILIVRIEEFLRSIVKITSAPTYKTRVKSFNSYYLKLLKFPPKKDTSDLPVLTDILGVRIICPFLQDINEVERILLKNFKIIEVERKGSERTFREFGYESVHFLLDIPEEFKVGLVLPKNLIFEIQLRTILQDAWAEVEHELVYKSEFSPFDQPLKRKLASINASLSLADIIFQEIRDYQNKLNAELEKRRFEFYSMADEYTAQVLPETNIVQHDNVEHGEELKLAETIDDLILSAIEAHNQNLFDKAEKIYTKIIEQNPNDIVLSVVYKHRGMAYFAQANYEGAYADFLQSCKYNSANFRSFYYVGIALTLLNRDDEAIEYFTKSLEINKFQAHVYFRRALSYFKLALYPEAARDLDSASDLGLAEEDAKKLRIAIAKKIDMV | failed
8 | MGHHHHHHSHMRPELEDSTLRYLQDLLAWVEENQHRVDGAEWGVDLPSVEAQLGSHRGLHQSIEEFRAKIERARSDEGQLSPATRGAY | failed
9 | LENQISFRKALSDSLPNPTYVVNWQGNVISHNSAFEHYFTADYYKNAMLPLENSDSPFKDVFSNAHEVTAETKENRTIYTQVFEIDNGIEKRCINHWHTLCNLPASDNAVYICGWQDITETRDLINALEVEKNKAIKATVAKSQFLATMSHEIRTPISSIMGFL | failed
10 | MSPVVIAVVGVVVLLVLLALVVVSRYKVAGPSEAFIVTGRRGKRSTDPETGRVFTDNSGQKVVVGGGVFVVPFVQQRFTLDLSSRHIPVAVRGAVTLRGVKANLEGVAIVKVGGTEDAIRAAAQRFLMQQDGIVGFTQEVLSGALRAIVGRMSVEDVIRDRAAFAGQVAEEAEASLSGQGLVLDAFQIQDITTEGSYLEDLGRPEAARAKQEADIAEAVARRAAEQARLKAEEEIAVAQRTLYLKQAEIKAETDQAEARANASGPLAEAARQQDILAEQEKVAERQAALKDRQLDTEVRKPADAQRYAAEQEAEARRVARVKQAEAERAAGIAAAQAEAERARLTGEGEKQRRSALADAVRLEGDAEAAAIGAKGAAEAEAMEKKADAFDRYGDAAVLQMLVEVLPQVVAKASEPLAAVDKMTVISTDGASRLTRTVADNVAQGMELLGSTTGVDLTSLLKGITAKEGITAKGEAGRATTENGKVEITDLEHHHHHH | not failed
11 | MGHHHHHHSHELLVVGSRPELGRWEPRGAVRLRPAGTAAGDGALALQEPGLWLGEVELAAEEAAQDGAEPGRVDTFWYKFLKREPGGELSWEGNGPHHDRCCTYNENNLVDGVYCLPIGHWIEATGHTNEMKHTTDFYFNIAGHQAMHYSRILPNIWLGSCPRQVEHVTIKLKHELGITAVMNFQTEWDIVQNSSGCNRYPEPMTPDTMIKLYREEGLAYIWMPTPDMSTEGRVQMLPQAVCLLHALLEKGHIVYVHCNAGVGRSTAAVCGWLQYVMGWNLRKVQYFLMAKRPAVYI | failed
12 | MTNTIKKISTAQTYLNNNEIEKIIEVSKSLDLMASFYEADVFIDVLSKFDDEAIVVAHGRPKEKSMYCENVIGKKALIENEPGVIKCLKTGERVRDIKALTQEYKLVKQNIQPITLDDKVLAVLIVEKDISSEVKNEFNASEDEENKNLHQFIKLIGNNDFLVDNLNSAILIFDKNGKLKIKNRIATEIYKNLGFGYDIQDMHYNDLDIETNTFENILMDENYDETNEVSIGNMFFKIKTIYIKDDEFKVCKIVQDISDLKRKEEELVLKTVAIREAHHRVKNNLHTVISIIKKQSRLSQNDEVKQCLDNIINRVFAILSTHYLLSKEVDNNISIREGINLLVSNIQGGYLFSKDIDIRITGEDFKISGEKATAILLVINEILQNCYDHAFSDREHGTIQILINKDNDYRNIAIIDDGIGFDSNNINKNSLGTYIIDSYITQMLKGNIERKSSENGTEVLITIPTQINI | failed
13 | MHTAICDELGIEFPIFAFTHCRDVVVAVSKAGGFGVLGAVGFTPEQLEIELNWIDEHIGDHPYGVDIVIPNKYEGMDSQLSADELAKTLRSMVPQEHLDFARKILADHGVPVEDADEDSLQLLGWTEATATPQVDAALKHPKMTMVANALGTPPADMIKHIHDSGRKVAALCGSPSQARKHADAGVDIIIAQGGEAGGHCGEVGSIVLWPQVVKEVAPVPVLAAGGIGSGQQIAAALALGTQGAWTGSQWLMVEEAANTAVQQAAYVKATSRDTVRSRSFTGKPARMLRNDWTEAWEQPESPKPLGMPLQYMVSGMAVKATHKYPNETVDVAFNPVGQVVGQFTKVEKTATVIERWVQEYLEATARLDALNAAASV | failed
14 | MRLIERYLFRQLLGPTLLATAALVALALLARSLSEFDVLVEQRQSALVFLKIILLALPQLLGIMMPLALFVAALVALNRLHTEQEIVVCFAGGMSRWRVISPAMRLAVIAALISLISGLWLQPWSARQIRETAFQIKTDVAATLVQPGQFTEPGPGLTVYAQSIDRDNKIQNLFIHQELPNGAASTYSSREAEIATRKGEPVLIMRHGSNQQFSRDGVLQYTSFDEYTFDLSSLFHSDELLHYKIADRYPHELFFPDLTQEWEQRNKDKLLAEGHSRFAGPLYNIALMSMALAAVLGGSFSRMGYGKRIAAVGAAAAIVRIVGFGVQAACEDDPWLNVLQYIVPLAATAWAMSQIFRQRVSPRRKTKPATPAPAFSGAA | failed
15 | AADHVKGDGKLTSKKISVADYNEIKVDGVIDFNYEQSDDPSTVEVTVDQNLHPYVNIEVKDRVLTIAFKGAKVDHFTKFIVKTNSKWLAAAKVSGNANFMVNSPLTGDETVIKANANSLVQLKETVTVGKLDLNVSGSANMVVNHLEADKIECDIDGSGSITIKKGNAKEGDYSIVSSGDIHAFGLAVPQLSCKVTGNGLAEVHATDNLKANVVGKGNIRYKGPTAVQQRIIGKGTVEEVKE | not failed
16 | AGNETVTEGFKEGQVGSSAMPHKMNARSCERVGGLQVILRGYLTMVADLSGQQWNEGDVFCSVIRRVALPDAFFALDGMYETFLTVLAEFGAFPAMIDRELERYLPFLATTRILMAAVRVGVGRETAHEVIKENAVAVALNMRENGGEQDLIDRLAADERLPMTREQLDEALADRHAFIGAAESQVARVVDRVNDLVRRYPAAAQYTPGDIL | failed
17 | LQPNMRTRVCTVINNNIAHEWTLARIASELLMSPSLLKKKLREEETSYSQLLTECRMQRALQLIVIHGFSIKRVAVSCGYHSVSYFIYVFRNYYGMTPTEYQERSAQRLSNRDSAAS | not failed
18 | MSSKNTAEVILGGKVIKLGGYESEEYLQRVASYINNKITEFNKEESYRRMSAELRTDMMYLNIADDYFKAKKMADSLSLDIENKDKEIYDLKHELIAAQIKAESSAKEIKELKSEINKYQKNIVKLETELNDSKK | not failed
19 | MAKLTESMTNVLEGDSMDQDVESPVAIHQPKLPKQARDDLPRHISRDRTKRKIQRYVRKDGKCNVHHGNVRETYRYLTDIFTTLVDLKWRFNLLIFVMVYTVTWLFFGMIWWLIAYIRGDMDHIEDPSWTPCVTNLNGFVSAFLFSIETETTIGYGYRVITDKCPEGIILLLIQSVLGSIVNAFMVGCMFVKISQPKKRAETLVFSTHAVISMRDGKLCLMFRVGDLRNSHIVEASIRAKLIKSKQTSEGEFIPLNQTDINVGYYTGDDRLFLVSPLIISHEINQQSPFWEISKAQLPKEELEIVVILEGMVEATGMTCQARSSYITSEILWGYRFTPVLTLEDGFYEVDYNSFHETYETSTPSLSAKELAELASRAELPLSWSVSSKLNQHAELETEEEEKNLEEQTERNGDVANLENESKV | failed
20 | MNVWQVVGYKHSGKTTLMEKWVAAAVREGWRVGTVKHHGHGGEPARPEGVDSVRHERAGAVATAVEGDGLLQLHLRRPLWRLDDVLALYAPLRLDLVLVEGYKQERHPKVVLVRSEEDWASLQHLANIRAVIAWEPLEGPLAHPVFSLADDDEYIPWLMNEVRTRT | not failed
21 | MSLKQKILIVEDSMTIRRMLIQAIAQQTGLEIDAFDTLEGARHCQGDEYVVALVDLTLPDAPSGEAVKVLLERGLPVVILTADISEDKREAWLEAGVLDYVMKDSRHSLQYAVGLVHRLYLNQQIEVLVVDDSRTSRHRTMAQLRKQLLQVHEASHAREALATLEQHPAIRLVLVDYYMPEIDGISLVRMLRERYSKQQLAIIGISVSDKRGLSARYLKQGANDFLNQPFEPEELQCRVSHNLEALEQFNSEGHHHHHH | not failed
22 | MAQKLYPPIHPGEILMEDFIKGFGLTQNKVAVSIGVPPRRINEIVHGKRSITADTALRLGRYFGIDPQFWLSLQTQYELELDRDAGAATYAQITPLKVA | failed
23 | MSCVDKGFSPYISLLISGLTVVFDQVIKWQTQQSIAYGDSISLTPFFNWVHTWNTGAAFGLLSNGGGWQRYFFIGVALLMSVALTRLIFNKVSKRDGISYGLILGGAVGNLIDRLFRGYVVDSLHLGWQTWQLPVFNIADIAITLGVILLLLSNLQVSMIPNLPGSK | failed
